# Key:
# [1] = target: recombinant WT HIV-1 JRCSF gp120 core polypeptide (HIV-1 subtype B, strain JRCSF) (UniProt P20871); assay: SPR (Biacore 2000), KA = ka/kd from a single-site fit; * best curve fit, dissociation slower than the limit of detection of the instrument
# [2] = target: recombinant WT HIV-1 JRCSF gp120 full-length polypeptide (HIV-1 subtype B, strain JRCSF) (UniProt P20871); assay: as above
# [3] = target: chimeric gp120 core polypeptide variant L7-043; assay: SPR (Biacore 2000), KA relative to the JR-CSF gp120 core row (= 1)
# [4] = target: recombinant WT HIV-1 JRCSF gp120 core polypeptide (HIV-1 subtype B, strain JRCSF) (UniProt P20871); assay: SPR (Biacore 2000), mAb captured on anti-human gamma chain antibody, gp120 injected
# [5] = target: recombinant WT HIV-1 JRCSF gp120 full-length polypeptide (HIV-1 subtype B, strain JRCSF) (UniProt P20871); assay: as above
# [6] = target: chimeric gp120 core polypeptide variant L7-043; assay: SPR (Biacore 2000), KA = ka/kd from a single-site fit
# [7] = target: chimeric gp120 core polypeptide variant L7-043CDC; assay: as above
# [8] = target: recombinant WT HIV-1 JRCSF gp120 core polypeptide (HIV-1 subtype B, strain JRCSF) (UniProt P20871); assay: as above
# [9] = target: recombinant WT HIV-1 JRCSF gp120 full-length polypeptide (HIV-1 subtype B, strain JRCSF) (UniProt P20871); assay: as above
# [10] = target: chimeric gp120 core polypeptide variant L7-043CDC; assay: SPR (Biacore 2000), mAb captured on anti-human gamma chain antibody, gp120 core injected
# [11] = target: HIV-1 NL4-3 gp160 envelope protein on pseudovirus (HIV-1 subtype B, strain NL4-3); assay: cell-based or functional assay
# [12] = target: HIV-1 BaL gp160 envelope protein on pseudovirus (HIV-1 subtype B, strain BaL); assay: cell-based or functional assay
# [13] = target: HIV-1 6535 gp160 envelope protein on pseudovirus (HIV-1 subtype B, strain 6535); assay: cell-based or functional assay
# [14] = target: HIV-1 93BR020 gp160 envelope protein on pseudovirus (HIV-1 subtype F, strain 93BR020); assay: cell-based or functional assay
# [15] = target: HIV-1 SF162 gp160 envelope protein on pseudovirus (HIV-1 subtype B, strain SF162); assay: cell-based or functional assay
# [16] = target: HIV-1 VLGCG4 gp160 envelope protein on pseudovirus (HIV-1 subtype G, strain VLGCG4); assay: cell-based or functional assay
# [17] = target: HIV-1 93MW960 gp160 envelope protein on pseudovirus (HIV-1 subtype C, strain 93MW960); assay: cell-based or functional assay
# [18] = target: HIV-1 QZ4589 gp160 envelope protein on pseudovirus (HIV-1 subtype B, strain QZ4589); assay: cell-based or functional assay
# [19] = target: HIV-1 92HT594 gp160 envelope protein on pseudovirus (HIV-1 subtype B, strain 92HT594); assay: cell-based or functional assay
# [20] = target: HIV-1 93BR029 gp160 envelope protein on pseudovirus (HIV-1 subtype F, strain 93BR029); assay: cell-based or functional assay
# [21] = target: HIV-1 QH0692 gp160 envelope protein on pseudovirus (HIV-1 subtype B, strain QH0692); assay: cell-based or functional assay
# [22] = target: HIV-1 1196 gp160 envelope protein on pseudovirus (HIV-1 subtype B, strain 1196); assay: cell-based or functional assay
# [23] = target: amphotropic MLV envelope protein on pseudovirus (amphotropic murine leukemia virus); assay: cell-based or functional assay
# [24] = target: HIV-1 92RW020 gp160 envelope protein on pseudovirus (HIV-1 subtype A, strain 92RW020); assay: cell-based or functional assay
# [25] = target: HIV-1 93TH305 gp160 envelope protein on pseudovirus (HIV-1 subtype E, strain 93TH305); assay: cell-based or functional assay
# [26] = target: HIV-1 JRCSF gp160 envelope protein on pseudovirus (HIV-1 subtype B, strain JRCSF) (UniProt P20871); assay: cell-based or functional assay
substance,measurement,setting,value
human monoclonal antibody IgG1b6,Ka,[1],6.32e+12 M⁻¹
same,Ka,[2],4.08e+11 M⁻¹
human monoclonal antibody IgG1b12,Fold Increase,[3],11
same,Ka,[4],> 1e+07 M⁻¹
same,Ka,[5],> 1e+07 M⁻¹
same,Ka,[6],3.8e+08 M⁻¹
same,Ka,[7],2.58e+08 M⁻¹
same,Ka,[8],3.43e+07 M⁻¹
same,Ka,[9],3.62e+07 M⁻¹
same,fold increase in b12 affinity against JRCSF gp120 core polypeptide,[10],> 7.5 fold
same,IC50 neutralization titer of pseudovirus (luciferase entry assay),[11],0.01 µg/mL
same,IC50 neutralization titer of pseudovirus (luciferase entry assay),[12],0.01 µg/mL
same,IC50 neutralization titer of pseudovirus (luciferase entry assay),[13],0.64 µg/mL
same,IC50 neutralization titer of pseudovirus (luciferase entry assay),[14],2.08 µg/mL
same,IC50 neutralization titer of pseudovirus (luciferase entry assay),[15],0.01 µg/mL
same,IC50 neutralization titer of pseudovirus (luciferase entry assay),[16],0.04 µg/mL
same,IC50 neutralization titer of pseudovirus (luciferase entry assay),[17],0.06 µg/mL
same,IC50 neutralization titer of pseudovirus (luciferase entry assay),[18],0.03 µg/mL
same,IC50 neutralization titer of pseudovirus (luciferase entry assay),[19],0.02 µg/mL
same,IC50 neutralization titer of pseudovirus (luciferase entry assay),[20],1.67 µg/mL
same,IC50 neutralization titer of pseudovirus (luciferase entry assay),[21],0.1 µg/mL
same,IC50 neutralization titer of pseudovirus (luciferase entry assay),[22],0.48 µg/mL
same,IC50 neutralization titer of pseudovirus (luciferase entry assay),[23],> 2.5 µg/mL
same,IC50 neutralization titer of pseudovirus (luciferase entry assay),[24],1.67 µg/mL
same,IC50 neutralization titer of pseudovirus (luciferase entry assay),[25],0.71 µg/mL
same,IC50 neutralization titer of pseudovirus (luciferase entry assay),[26],0.06 µg/mL

# Reference: patent US20110262474A1
